From paper PMC4381287, “Structural characterization of the late competence protein ComFB from Bacillus subtilis” (Bioscience Reports, 2014)

Target: the molecule itself
Experiment: SEC; Superdex75 10/300 column, calibrated with standards of known molecular weight; wild type and variants at similar concentrations

B1: late competence protein ComFB from Bacillus subtilis, N-terminally 6xHis-tagged, wild type (natural protein, B. subtilis)
chain: MLVNSKEIVMKELLDRYMDQLHMACTCQVCQNDVLALSLNKVSPSYVTDFKKIAYTKAELVDKQKNTAMLVILAESAAVVSESPSDLCQTKQEEAFIN
notes: ComFB, second protein of the comF operon of Bacillus subtilis, amplified from chromosomal DNA of strain PY79; the purified tagged monomer is 13.5 kDa; the crystal model holds residues 1-91 (chain A); By LC-ESI MS the first methionine is removed; Each subunit holds one Zn2+ ion (C25, C27, C30, C88); The histidine tag was uncleaved in the crystals; also called His6-ComFB; native ComFB; source: E. …
  stoichiometry N: 2
